Reference: paper PMC3594340 (Journal of the American Society for Mass Spectrometry, 2013)

Molecular target: the molecule itself
Assay: cross-linking

B1: SO_2176 from Shewanella oneidensis (natural protein)
chain: MAIQSKYSNTQVESLIAEILVVLEKHKAPTDLSLMALGNCVTHLLERKVPSESRQAVAEQFAKALAQSVKSN
B1: binds.
